Consider two molecules from article PMC11293393, “ChAHP2 and ChAHP control diverse retrotransposons by complementary activities” (Genes & Development, 2024).

Sequences and labels used below:
B1: Strep-HP1β (natural protein)
chain: not shown
notes: HP1β (CBX1), human, full length, amino acid residues 1-185; pFast-Bac-derived vector; also called full-length human HP1β; source: Trichoplusia ni High5 cells (baculovirus), coexpressed with His-ADNP2; in lysate for the pull-down, Strep-Tactin eluate for SEC-MALS; not shown: Strep tag II, N-terminal, kept
B2: His-ADNP2 (natural protein, human, UniProt Q6IQ32 1-1131, looked up)
chain: MFQIPVENLDNIRKVRKKVKGILVDIGLDSCKELLKDLKGFDPGEKYFHNTSWGDVSLWEPSGKKVRYRTKPYCCGLCKYSTKVLTSFKNHLHRYHEDEIDQELVIPCPNCVFASQPKVVGRHFRMFHAPVRKVQNYTVNILGETKSSRSDVISFTCLKCNFSNTLYYSMKKHVLVAHFHYLINSYFGLRTEEMGEQPKTNDTVSIEKIPPPDKYYCKKCNANASSQDALMYHILTSDIHRDLENKLRSVISEHIKRTGLLKQTHIAPKPAAHLAAPANGSAPSAPAQPPCFHLALPQNSPSPAAGQPVTVAQGAPGSLTHSPPAAGQSHMTLVSSPLPVGQNSLTLQPPAPQPVFLSHGVPLHQSVNPPVLPLSQPVGPVNKSVGTSVLPINQTVRPGVLPLTQPVGPINRPVGPGVLPVSPSVTPGVLQAVSPGVLSVSRAVPSGVLPAGQMTPAGQMTPAGVIPGQTATSGVLPTGQMVQSGVLPVGQTAPSRVLPPGQTAPLRVISAGQVVPSGLLSPNQTVSSSAVVPVNQGVNSGVLQLSQPVVSGVLPVGQPVRPGVLQLNQTVGTNILPVNQPVRPGASQNTTFLTSGSILRQLIPTGKQVNGIPTYTLAPVSVTLPVPPGGLATVAPPQMPIQLLPSGAAAPMAGSMPGMPSPPVLVNAAQSVFVQASSSAADTNQVLKQAKQWKTCPVCNELFPSNVYQVHMEVAHKHSESKSGEKLEPEKLAACAPFLKWMREKTVRCLSCKCLVSEEELIHHLLMHGLGCLFCPCTFHDIKGLSEHSRNRHLGKKKLPMDYSNRGFQLDVDANGNLLFPHLDFITILPKEKLGEREVYLAILAGIHSKSLVPVYVKVRPQAEGTPGSTGKRVSTCPFCFGPFVTTEAYELHLKERHHIMPTVHTVLKSPAFKCIHCCGVYTGNMTLAAIAVHLVRCRSAPKDSSSDLQAQPGFIHNSELLLVSGEVMHDSSFSVKRKLPDGHLGAEDQRHGEEQPPILNADAAPGPEKVTSVVPFKRQRNESRTEGPIVKDEALQILALDPKKYEGRSYEEKKQFLKDYFHKKPYPSKKEIELLSSLFWVWKIDVASFFGKRRYICMKAIKNHKPSVLLGFDMSELKNVKHRLNFEYEP
notes: ADNP2, human, full length, amino acid residues 1-1131; pFast-Bac-derived vector; also called full-length human ADNP2; source: Trichoplusia ni High5 cells (baculovirus), coexpressed with Strep-HP1β; in lysate for the pull-down, Strep-Tactin eluate for SEC-MALS; not shown: His6, N-terminal, kept

In experiment [1] the target is T1, His-CHD4 (human, UniProt Q14839 1-1912).
T1 construct: CHD4, human, full length, amino acid residues 1-1912; pAC8-derived vector; also called full-length human CHD4; source: Trichoplusia ni High5 cells (baculovirus), expressed separately; in lysate for the pull-down, Strep-Tactin eluate for SEC-MALS; not shown: His6, N-terminal, kept
The experiment is described as follows: SEC-MALS; Strep-Tactin eluate, ~4-5 mg/mL, Superose 6 Increase 10/300 GL, 50 mM HEPES-OH pH 7.4, 150 mM NaCl, 0.5 mM TCEP. To be noted: both partners purified. In general terms: In gel filtration, larger molecules generally elute earlier.

Experiment [2] deals with B2. The experiment in a line: pull-down; High5 cell pools (His-ADNP2 + Strep-HP1β coexpressed; His-CHD4 separately) mixed and lysed; cleared lysate over Strep-Tactin sepharose, 50 mM Tris pH 7.5, 300 mM NaCl, 0.1% Triton X-100; eluted with 2.5 mM desthiobiotin; SDS-PAGE and Coomassie staining. The conditions noted are these: partners not purified.

T1 sequence (Q14839 whole entry, the tested form may be a part): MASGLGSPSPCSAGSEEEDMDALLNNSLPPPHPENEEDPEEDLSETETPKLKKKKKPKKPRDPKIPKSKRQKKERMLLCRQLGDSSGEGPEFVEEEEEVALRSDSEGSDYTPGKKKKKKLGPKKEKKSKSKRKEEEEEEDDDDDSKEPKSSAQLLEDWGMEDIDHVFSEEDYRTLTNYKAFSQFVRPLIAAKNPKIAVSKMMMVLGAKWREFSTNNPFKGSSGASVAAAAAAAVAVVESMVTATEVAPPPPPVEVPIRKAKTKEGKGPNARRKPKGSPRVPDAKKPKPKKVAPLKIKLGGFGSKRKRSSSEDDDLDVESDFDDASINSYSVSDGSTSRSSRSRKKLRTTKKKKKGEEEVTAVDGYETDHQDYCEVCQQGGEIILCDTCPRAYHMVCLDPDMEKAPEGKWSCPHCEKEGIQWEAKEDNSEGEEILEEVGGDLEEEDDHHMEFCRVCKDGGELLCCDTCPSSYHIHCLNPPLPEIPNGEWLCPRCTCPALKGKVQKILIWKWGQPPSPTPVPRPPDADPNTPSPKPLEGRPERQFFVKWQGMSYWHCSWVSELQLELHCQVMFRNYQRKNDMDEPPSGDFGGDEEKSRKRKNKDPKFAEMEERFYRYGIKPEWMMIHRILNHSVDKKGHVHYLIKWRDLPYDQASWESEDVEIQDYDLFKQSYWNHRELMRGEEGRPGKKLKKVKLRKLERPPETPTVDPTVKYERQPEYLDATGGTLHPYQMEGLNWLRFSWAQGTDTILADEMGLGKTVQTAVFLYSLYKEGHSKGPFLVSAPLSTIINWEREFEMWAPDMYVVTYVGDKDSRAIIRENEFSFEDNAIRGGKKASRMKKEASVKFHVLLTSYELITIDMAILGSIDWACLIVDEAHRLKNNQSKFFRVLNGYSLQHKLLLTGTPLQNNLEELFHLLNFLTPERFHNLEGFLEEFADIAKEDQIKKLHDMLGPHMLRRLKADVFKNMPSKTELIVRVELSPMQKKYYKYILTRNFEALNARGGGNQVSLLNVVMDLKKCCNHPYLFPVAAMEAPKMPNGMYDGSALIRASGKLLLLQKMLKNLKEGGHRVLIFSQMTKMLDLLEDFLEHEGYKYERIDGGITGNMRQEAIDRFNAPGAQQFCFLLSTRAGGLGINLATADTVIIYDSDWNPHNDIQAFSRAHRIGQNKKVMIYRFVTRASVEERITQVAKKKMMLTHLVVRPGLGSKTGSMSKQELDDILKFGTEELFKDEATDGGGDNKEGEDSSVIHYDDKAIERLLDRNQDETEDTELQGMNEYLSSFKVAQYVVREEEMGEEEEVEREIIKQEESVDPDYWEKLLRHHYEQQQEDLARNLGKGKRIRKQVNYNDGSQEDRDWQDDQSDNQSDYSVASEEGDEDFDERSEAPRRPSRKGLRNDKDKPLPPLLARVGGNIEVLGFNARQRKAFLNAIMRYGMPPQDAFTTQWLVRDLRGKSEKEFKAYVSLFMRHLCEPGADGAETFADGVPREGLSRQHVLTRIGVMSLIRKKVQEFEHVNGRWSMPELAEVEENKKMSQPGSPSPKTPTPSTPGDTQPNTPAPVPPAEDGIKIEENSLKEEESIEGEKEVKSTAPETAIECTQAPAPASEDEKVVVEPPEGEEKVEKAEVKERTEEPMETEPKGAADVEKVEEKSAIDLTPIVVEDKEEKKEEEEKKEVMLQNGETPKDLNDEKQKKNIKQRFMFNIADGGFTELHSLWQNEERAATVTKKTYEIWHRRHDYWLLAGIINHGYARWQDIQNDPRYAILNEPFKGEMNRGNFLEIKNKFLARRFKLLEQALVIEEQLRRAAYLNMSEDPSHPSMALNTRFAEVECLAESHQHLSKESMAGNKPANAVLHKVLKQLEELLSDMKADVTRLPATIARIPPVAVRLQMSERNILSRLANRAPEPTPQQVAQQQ

As to B1, the binding result in experiment [1] and in experiment [2] was “binds” throughout.
As for B2, in experiment [1], the binding result is given as “binds”.
